Data published in the supplement of paper PMC10065799, “High-throughput profiling of sequence recognition by tyrosine kinases and SH2 domains using bacterial peptide display” (eLife, 2023).

Columns and labels:
AncSZ = test: phosphorylation enrichment, bacterial display (enrichment ratio); higher = better substrate or ligand; peptides without Tyr show the background
EPHB1 = EPHB1 (UniProt P54762); test: as above
EPHB2 = EPHB2 (UniProt P29323); test: as above
FGFR1 = FGFR1 (UniProt P11362); test: as above
Sequence of FGFR1 (P11362 whole entry, looked up): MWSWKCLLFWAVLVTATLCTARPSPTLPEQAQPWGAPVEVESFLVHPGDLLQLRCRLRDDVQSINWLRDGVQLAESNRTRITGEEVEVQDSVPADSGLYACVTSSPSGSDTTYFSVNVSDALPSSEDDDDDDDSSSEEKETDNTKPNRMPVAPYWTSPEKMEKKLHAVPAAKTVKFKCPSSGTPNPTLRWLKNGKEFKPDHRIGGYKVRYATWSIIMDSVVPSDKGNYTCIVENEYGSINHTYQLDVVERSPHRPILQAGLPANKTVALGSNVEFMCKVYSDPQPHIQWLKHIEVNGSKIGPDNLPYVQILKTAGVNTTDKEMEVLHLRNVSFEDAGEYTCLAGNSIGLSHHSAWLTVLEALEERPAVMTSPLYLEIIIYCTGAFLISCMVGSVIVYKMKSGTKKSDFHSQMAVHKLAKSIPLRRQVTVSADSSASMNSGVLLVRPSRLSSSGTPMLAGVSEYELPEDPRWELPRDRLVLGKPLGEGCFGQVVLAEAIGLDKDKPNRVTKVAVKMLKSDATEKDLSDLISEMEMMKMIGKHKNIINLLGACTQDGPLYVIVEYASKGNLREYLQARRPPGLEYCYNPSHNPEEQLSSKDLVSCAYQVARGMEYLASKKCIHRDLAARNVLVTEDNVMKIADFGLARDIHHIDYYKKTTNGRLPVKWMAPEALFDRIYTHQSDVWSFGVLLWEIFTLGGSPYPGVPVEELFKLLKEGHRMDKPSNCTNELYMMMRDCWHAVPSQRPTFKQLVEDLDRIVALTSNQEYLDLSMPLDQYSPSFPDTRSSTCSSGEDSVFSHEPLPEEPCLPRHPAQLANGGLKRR

FGFR3 = FGFR3 (UniProt P22607); test: as above
Sequence of FGFR3 (P22607 whole entry, looked up): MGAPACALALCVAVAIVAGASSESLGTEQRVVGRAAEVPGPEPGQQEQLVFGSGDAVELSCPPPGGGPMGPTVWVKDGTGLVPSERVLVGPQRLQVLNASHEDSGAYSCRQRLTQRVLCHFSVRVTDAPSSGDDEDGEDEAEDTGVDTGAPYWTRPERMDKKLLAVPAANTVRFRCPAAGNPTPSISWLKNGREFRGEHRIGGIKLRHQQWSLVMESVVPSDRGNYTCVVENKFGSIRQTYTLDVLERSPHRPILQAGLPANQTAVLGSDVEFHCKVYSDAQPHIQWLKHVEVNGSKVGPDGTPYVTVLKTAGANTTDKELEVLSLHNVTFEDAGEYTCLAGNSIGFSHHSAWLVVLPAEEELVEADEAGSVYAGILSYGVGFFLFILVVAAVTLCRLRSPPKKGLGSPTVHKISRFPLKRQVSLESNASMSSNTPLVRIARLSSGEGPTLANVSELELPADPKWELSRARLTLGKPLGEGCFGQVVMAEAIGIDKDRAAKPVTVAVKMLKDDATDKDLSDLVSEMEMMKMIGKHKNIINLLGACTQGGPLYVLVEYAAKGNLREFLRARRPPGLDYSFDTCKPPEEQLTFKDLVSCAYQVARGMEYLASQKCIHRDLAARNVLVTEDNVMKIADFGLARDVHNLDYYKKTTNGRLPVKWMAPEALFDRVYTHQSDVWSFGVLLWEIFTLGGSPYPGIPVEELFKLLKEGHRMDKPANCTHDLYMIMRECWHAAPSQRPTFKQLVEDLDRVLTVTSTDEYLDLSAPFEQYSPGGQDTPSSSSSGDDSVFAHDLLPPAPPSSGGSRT

Fer (mouse) = test: as above
Fes = Fes (UniProt P07332); test: as above
Fyn = Fyn (UniProt P06241); test: as above
Sequence of Fyn (P06241 whole entry, looked up): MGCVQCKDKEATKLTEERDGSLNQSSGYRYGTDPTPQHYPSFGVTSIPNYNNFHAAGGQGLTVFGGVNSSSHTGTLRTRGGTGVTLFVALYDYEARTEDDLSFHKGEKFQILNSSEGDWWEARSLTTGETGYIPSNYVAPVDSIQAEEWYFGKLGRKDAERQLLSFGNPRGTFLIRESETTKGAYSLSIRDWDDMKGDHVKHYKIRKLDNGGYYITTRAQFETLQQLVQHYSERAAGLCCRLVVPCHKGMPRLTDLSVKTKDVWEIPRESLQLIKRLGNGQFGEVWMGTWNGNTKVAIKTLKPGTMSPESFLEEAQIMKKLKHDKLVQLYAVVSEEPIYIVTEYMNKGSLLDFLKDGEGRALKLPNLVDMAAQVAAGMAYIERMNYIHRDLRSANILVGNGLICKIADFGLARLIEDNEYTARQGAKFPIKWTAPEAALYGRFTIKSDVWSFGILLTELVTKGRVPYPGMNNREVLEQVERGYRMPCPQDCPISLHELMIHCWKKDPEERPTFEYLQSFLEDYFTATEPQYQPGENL

Hck = Hck (UniProt P08631); test: as above
Sequence of Hck (P08631 whole entry, looked up): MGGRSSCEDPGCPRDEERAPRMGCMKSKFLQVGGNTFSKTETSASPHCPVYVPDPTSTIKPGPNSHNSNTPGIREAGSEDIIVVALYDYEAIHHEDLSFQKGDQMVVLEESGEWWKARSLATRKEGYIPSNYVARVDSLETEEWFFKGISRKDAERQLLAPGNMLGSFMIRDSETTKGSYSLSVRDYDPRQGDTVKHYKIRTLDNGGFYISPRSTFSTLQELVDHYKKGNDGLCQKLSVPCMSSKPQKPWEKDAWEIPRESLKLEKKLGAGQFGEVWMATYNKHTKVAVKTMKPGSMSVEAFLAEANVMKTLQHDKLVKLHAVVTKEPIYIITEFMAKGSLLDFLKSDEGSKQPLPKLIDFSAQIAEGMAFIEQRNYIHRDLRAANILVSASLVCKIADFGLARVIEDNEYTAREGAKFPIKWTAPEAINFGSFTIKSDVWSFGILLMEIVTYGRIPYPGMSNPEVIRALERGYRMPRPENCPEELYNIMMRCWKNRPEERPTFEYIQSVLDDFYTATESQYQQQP

Jak2 = Jak2 (UniProt O60674); test: as above
Sequence of Jak2 (O60674 whole entry, looked up): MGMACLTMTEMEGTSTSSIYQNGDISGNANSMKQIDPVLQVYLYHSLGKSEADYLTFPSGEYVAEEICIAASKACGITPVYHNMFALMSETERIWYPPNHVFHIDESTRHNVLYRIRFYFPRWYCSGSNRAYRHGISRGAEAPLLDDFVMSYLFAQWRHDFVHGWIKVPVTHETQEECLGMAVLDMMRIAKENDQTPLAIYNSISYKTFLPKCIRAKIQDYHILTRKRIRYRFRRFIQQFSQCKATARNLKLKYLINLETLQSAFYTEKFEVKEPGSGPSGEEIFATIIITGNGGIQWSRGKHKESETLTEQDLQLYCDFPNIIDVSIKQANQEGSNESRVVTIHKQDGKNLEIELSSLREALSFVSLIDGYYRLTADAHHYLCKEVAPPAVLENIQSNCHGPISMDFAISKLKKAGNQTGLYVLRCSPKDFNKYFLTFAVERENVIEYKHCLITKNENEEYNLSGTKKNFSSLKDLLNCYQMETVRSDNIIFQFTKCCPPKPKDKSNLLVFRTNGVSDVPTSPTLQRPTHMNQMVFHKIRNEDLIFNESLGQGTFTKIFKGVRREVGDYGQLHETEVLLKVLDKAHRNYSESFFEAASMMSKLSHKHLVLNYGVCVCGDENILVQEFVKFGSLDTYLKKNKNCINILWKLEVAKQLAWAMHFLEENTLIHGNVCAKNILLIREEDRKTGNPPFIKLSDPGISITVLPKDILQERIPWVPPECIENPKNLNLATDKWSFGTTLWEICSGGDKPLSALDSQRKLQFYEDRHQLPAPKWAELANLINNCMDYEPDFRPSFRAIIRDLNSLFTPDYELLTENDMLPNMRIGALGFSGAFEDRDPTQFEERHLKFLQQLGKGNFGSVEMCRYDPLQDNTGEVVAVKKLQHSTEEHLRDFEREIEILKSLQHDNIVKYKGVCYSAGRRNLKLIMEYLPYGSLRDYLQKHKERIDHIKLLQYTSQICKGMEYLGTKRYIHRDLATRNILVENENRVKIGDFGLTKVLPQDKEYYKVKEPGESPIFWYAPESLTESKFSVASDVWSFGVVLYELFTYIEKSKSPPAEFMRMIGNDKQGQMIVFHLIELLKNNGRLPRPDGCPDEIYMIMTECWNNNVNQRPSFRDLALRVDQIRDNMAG

MERTK = MERTK (UniProt Q12866); test: as above
c-Abl (mouse) = test: as above
c-Src = test: as above
Grb2 SH2 = Grb2 SH2 (UniProt P62993); test: SH2 binding enrichment of the phosphorylated peptide, bacterial display (enrichment ratio); higher = better substrate or ligand; peptides without Tyr show the background
Sequence of Grb2 SH2 (P62993 whole entry, looked up): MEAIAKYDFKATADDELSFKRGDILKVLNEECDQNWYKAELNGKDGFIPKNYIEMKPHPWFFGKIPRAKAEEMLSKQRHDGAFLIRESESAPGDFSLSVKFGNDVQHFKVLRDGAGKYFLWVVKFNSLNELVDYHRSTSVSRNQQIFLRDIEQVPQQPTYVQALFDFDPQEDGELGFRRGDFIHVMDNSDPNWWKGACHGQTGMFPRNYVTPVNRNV

SHP2-C SH2 = test: as above
c-Src SH2 = test: as above
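For SH2 binding enrichment of the phosphorylated peptide, bacterial display in this document: peptide library displayed on the E. coli surface as eCPX fusions, selected cells deep-sequenced, score is each peptide's frequency after selection divided by its frequency in the input.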
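For phosphorylation enrichment, bacterial display in this document: 11-residue human phosphosite peptides and single-mutation variants displayed on the E. coli surface, counted by deep sequencing, each peptide's frequency after selection divided by its frequency in the unselected input library; frequency after pTyr selection over input frequency; kinase dosed for 20-30% of maximal phosphorylation in three min.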

Sequence of EPHB1 (P54762 whole entry, looked up): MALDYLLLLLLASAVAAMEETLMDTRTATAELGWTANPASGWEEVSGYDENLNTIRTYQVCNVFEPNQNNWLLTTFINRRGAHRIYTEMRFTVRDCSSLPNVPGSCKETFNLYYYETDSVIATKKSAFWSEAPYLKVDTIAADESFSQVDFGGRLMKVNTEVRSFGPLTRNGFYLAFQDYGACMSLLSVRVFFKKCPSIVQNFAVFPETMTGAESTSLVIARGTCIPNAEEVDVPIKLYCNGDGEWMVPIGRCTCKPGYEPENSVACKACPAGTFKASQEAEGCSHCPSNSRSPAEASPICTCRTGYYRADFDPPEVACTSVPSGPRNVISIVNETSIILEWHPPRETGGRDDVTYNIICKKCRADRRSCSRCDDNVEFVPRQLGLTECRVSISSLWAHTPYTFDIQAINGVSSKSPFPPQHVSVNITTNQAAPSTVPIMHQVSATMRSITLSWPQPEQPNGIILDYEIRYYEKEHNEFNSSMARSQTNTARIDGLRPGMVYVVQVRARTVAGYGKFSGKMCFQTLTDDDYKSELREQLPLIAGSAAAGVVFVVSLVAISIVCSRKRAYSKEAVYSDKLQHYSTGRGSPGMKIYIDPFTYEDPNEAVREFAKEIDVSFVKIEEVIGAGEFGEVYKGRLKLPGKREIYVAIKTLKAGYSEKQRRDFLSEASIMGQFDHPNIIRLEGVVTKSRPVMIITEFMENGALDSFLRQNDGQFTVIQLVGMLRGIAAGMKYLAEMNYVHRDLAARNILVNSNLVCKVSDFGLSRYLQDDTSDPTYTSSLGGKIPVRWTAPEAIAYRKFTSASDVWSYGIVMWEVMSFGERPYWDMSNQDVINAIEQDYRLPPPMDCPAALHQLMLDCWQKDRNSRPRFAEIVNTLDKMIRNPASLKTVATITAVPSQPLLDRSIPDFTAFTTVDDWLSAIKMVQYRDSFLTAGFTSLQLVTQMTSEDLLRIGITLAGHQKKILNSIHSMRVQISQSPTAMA

| Sequence | phosphorylation enrichment (AncSZ) | phosphorylation enrichment (EPHB1) | phosphorylation enrichment (EPHB2) | phosphorylation enrichment (FGFR1) | phosphorylation enrichment (FGFR3) | phosphorylation enrichment (Fer (mouse)) | phosphorylation enrichment (Fes) | phosphorylation enrichment (Fyn) | phosphorylation enrichment (Hck) | phosphorylation enrichment (Jak2) | phosphorylation enrichment (MERTK) | phosphorylation enrichment (c-Abl (mouse)) | phosphorylation enrichment (c-Src) | SH2 binding enrichment (Grb2 SH2) | SH2 binding enrichment (SHP2-C SH2) | SH2 binding enrichment (c-Src SH2) |
| --- | --- | --- | --- | --- | --- | --- | --- | --- | --- | --- | --- | --- | --- | --- | --- | --- |
| FEEDPYLVVNP [MCM6_Y810_YF] | 1.87 | 0.743 | 0.6 | 1.23 | 1.62 | 0.886 | 1.46 | 1.88 | 1.04 | 1.54 | 0.533 | 0.87 | 2.65 | 0.769 | 0.557 | 0.507 |
| ATCKAYGQALA [TKT_Y321_R318C] | 0.753 | 0.523 | 0.446 | 0.445 | 0.573 | 0.484 | 0.73 | 0.424 | 0.431 | 0.645 | 0.419 | 0.568 | 0.493 | 0.899 | 0.631 | 0.453 |
| KIDAKYKKKIE [WDR19_Y1230] | 0.698 | 0.27 | 0.373 | 0.368 | 0.368 | 0.401 | 0.891 | 0.308 | 0.408 | 0.594 | 0.418 | 0.631 | 0.346 | 0.601 | 0.602 | 0.367 |
| TVSRPYSFIEF [SEC22B_Y110] | 0.746 | 0.527 | 0.403 | 3.02 | 2.19 | 11.3 | 1.12 | 0.993 | 0.705 | 0.848 | 6.03 | 0.639 | 3.15 | 0.891 | 26.3 | 19.8 |
| TFRPPYYHRNC [HGD_Y333] | 0.721 | 0.506 | 0.474 | 0.497 | 0.486 | 0.375 | 0.878 | 0.562 | 0.524 | 0.686 | 0.498 | 0.599 | 0.559 | 1.38 | 1.86 | 1.18 |
| NVDGKYSYLKV [GRM3_Y478_G475D] | 0.705 | 0.569 | 0.59 | 0.563 | 0.507 | 0.515 | 0.878 | 0.444 | 0.554 | 0.825 | 0.559 | 0.557 | 0.432 | 0.752 | 1.35 | 3.85 |
| DLDLTSIYPNI [PTEN_Y27_Y27S] | 0.871 | 0.498 | 0.582 | 0.468 | 0.78 | 0.425 | 0.955 | 0.506 | 0.478 | 0.903 | 0.516 | 0.837 | 0.53 | 0.808 | 0.614 | 0.949 |
| LFRFGYANTSE [SI_Y1233_C1229Y_YF] | 0.696 | 0.378 | 0.585 | 0.619 | 0.497 | 0.433 | 0.937 | 0.411 | 0.51 | 0.807 | 0.315 | 0.847 | 0.376 | 1.48 | 0.95 | 0.936 |
| SVVAPYEPPEV [TP53_Y220_V218A] | 1.34 | 0.629 | 0.617 | 0.528 | 0.753 | 0.578 | 1.48 | 0.67 | 0.624 | 1.1 | 0.629 | 1.08 | 0.672 | 0.903 | 0.59 | 0.762 |
| IGERTYGQVFK [CDK13_Y716_G714R_YF] | 0.62 | 0.468 | 0.557 | 0.368 | 0.482 | 0.456 | 0.905 | 7.52 | 3.7 | 0.495 | 0.4 | 0.474 | 5.22 | 0.857 | 0.754 | 0.519 |
| KEEEDYKEENN [BMS1_Y651] | 1.15 | 0.532 | 0.554 | 0.468 | 0.561 | 0.55 | 1.06 | 0.475 | 0.516 | 1 | 0.422 | 0.75 | 0.453 | 0.769 | 0.716 | 0.499 |
| KGLKVYVNGTL [ADGRD1_Y183_E178K] | 1.11 | 0.524 | 0.576 | 0.421 | 0.677 | 0.452 | 1.16 | 0.364 | 0.441 | 0.923 | 0.431 | 0.584 | 0.406 | 1.32 | 0.703 | 0.549 |
| QLAPQYTFAQG [FLNA_Y1761_YF] | 0.734 | 0.344 | 0.523 | 0.561 | 0.42 | 0.471 | 0.564 | 0.259 | 0.443 | 0.512 | 0.457 | 0.691 | 0.599 | 0.829 | 1.15 | 0.634 |
| IIAVHYVLEES [RYR2_Y4559] | 1 | 0.565 | 0.628 | 0.557 | 0.626 | 0.501 | 2.04 | 0.457 | 0.516 | 0.963 | 0.484 | 0.676 | 0.488 | 1.41 | 1.28 | 1.09 |
| RDMNAYISPSP [MMAA_Y207_R209S] | 0.505 | 0.553 | 0.477 | 0.432 | 0.508 | 0.66 | 1.03 | 0.365 | 0.323 | 0.879 | 0.451 | 0.671 | 0.416 | 1.01 | 0.715 | 0.567 |
| RDLEQYVNNVN [PCDH19_Y1097] | 1.06 | 0.64 | 0.625 | 0.476 | 0.633 | 0.356 | 1.01 | 0.405 | 0.377 | 1.09 | 0.612 | 0.968 | 0.541 | 1.8 | 0.573 | 0.59 |
| PIDLYYLMDLS [ITGB2_Y131] | 6.05 | 13.5 | 12.5 | 17.4 | 18.6 | 9.5 | 4.2 | 8.8 | 7.58 | 8.57 | 13.3 | 1.09 | 6.67 | 0.922 | 0.911 | 0.67 |
| AESPEHVHMYT [FAM111A_Y511_Y511H] | 0.812 | 0.523 | 0.474 | 0.533 | 0.609 | 0.432 | 0.861 | 0.476 | 0.547 | 0.687 | 0.377 | 0.476 | 0.369 | 0.822 | 0.674 | 0.489 |
| KGTAGYTTVAV [RET_Y752_R749T] | 0.517 | 0.46 | 0.362 | 0.327 | 0.34 | 0.313 | 0.493 | 0.359 | 0.357 | 0.398 | 0.349 | 0.448 | 0.37 | 0.757 | 2.15 | 1.99 |
| EGQKIYIDDNN [PIP4K2A_Y246] | 1.04 | 0.586 | 0.539 | 0.584 | 0.667 | 0.484 | 1.15 | 0.568 | 0.548 | 0.984 | 0.412 | 0.74 | 0.467 | 0.699 | 0.696 | 0.416 |
| NFGTNYRVGSS [CPO_Y278_K273N_YF] | 0.602 | 0.417 | 0.515 | 0.508 | 0.424 | 0.429 | 0.716 | 0.43 | 0.482 | 0.534 | 0.42 | 0.525 | 0.442 | 0.88 | 0.634 | 0.418 |
| PVEAAYQKVVA [HBB_Y131_Q128E] | 0.819 | 0.397 | 0.401 | 0.573 | 0.617 | 0.558 | 0.695 | 0.56 | 0.612 | 0.556 | 0.52 | 0.601 | 0.517 | 0.725 | 0.713 | 0.964 |
| KWTVDYLGQVG [TYW5_Y48_S50G] | 0.913 | 0.515 | 0.444 | 0.531 | 0.602 | 0.405 | 0.774 | 0.46 | 0.487 | 0.845 | 0.336 | 0.621 | 0.392 | 1.04 | 0.918 | 0.494 |
| CPTIHYNYMCN [TP53_Y234_T230P] | 0.843 | 0.603 | 0.607 | 0.54 | 0.586 | 0.621 | 0.999 | 0.594 | 0.429 | 0.776 | 0.462 | 0.634 | 0.462 | 1.02 | 4.49 | 8.28 |
| ADFFDYGHGLS [KHDRBS3_Y304_YF] | 0.709 | 0.585 | 0.38 | 0.459 | 0.727 | 0.433 | 0.905 | 0.438 | 0.522 | 1.03 | 0.434 | 0.76 | 0.449 | 0.863 | 0.741 | 0.437 |
| RGYRQYAYDGK [HLA-A_Y140_D140Y] | 0.478 | 0.674 | 0.243 | 0.426 | 0.39 | 0.317 | 0.474 | 0.252 | 0.294 | 0.402 | 0.423 | 0.532 | 0.434 | 0.679 | 0.607 | 0.44 |
| TTPAVYARVAK [CTRB2_Y246] | 0.49 | 0.594 | 0.505 | 0.436 | 0.436 | 0.383 | 0.583 | 1.28 | 2.77 | 0.464 | 0.529 | 1.04 | 2.23 | 0.897 | 2.3 | 2.12 |
| AELVQYFMEHH [PTPN11_Y80_YF] | 1.02 | 0.618 | 0.545 | 0.652 | 0.762 | 0.463 | 1.08 | 0.623 | 0.66 | 0.695 | 0.508 | 0.547 | 0.437 | 1.05 | 0.84 | 0.473 |
| SDYYAYSPVRE [H6PD_Y449] | 6.22 | 17.5 | 23.7 | 16.3 | 14.8 | 12.9 | 0.832 | 9.64 | 8.79 | 11.2 | 10.7 | 12.9 | 7.18 | 1.06 | 1.48 | 1.13 |
